Measured values reported in patent US20030040012A1, “Method of detecting protein-protein interaction” (priority 2000, published 2003).
Numbering of substitutions follows the chain as printed. Numbers in names are those of the source.

T1: binding of Npw38 to NpwBP(P2)-GFP (Homo sapiens, UniProt O60828)
T1 construct: expressed in transfected cells; host or cells: COS7 (monkey kidney)
T1 sequence (O60828 1-265): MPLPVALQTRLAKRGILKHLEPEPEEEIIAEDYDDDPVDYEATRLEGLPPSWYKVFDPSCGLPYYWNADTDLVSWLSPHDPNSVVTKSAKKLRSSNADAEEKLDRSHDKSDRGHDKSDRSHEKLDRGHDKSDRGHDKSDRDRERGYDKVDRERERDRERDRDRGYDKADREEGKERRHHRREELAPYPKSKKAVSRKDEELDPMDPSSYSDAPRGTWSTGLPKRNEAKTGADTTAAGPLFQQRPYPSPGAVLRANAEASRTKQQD

T2: Npw38 (Homo sapiens, UniProt O60828, W52A)
T2 construct: expressed in transfected cells; host or cells: COS7 (monkey kidney)
T2 sequence (O60828 2-265 W52A): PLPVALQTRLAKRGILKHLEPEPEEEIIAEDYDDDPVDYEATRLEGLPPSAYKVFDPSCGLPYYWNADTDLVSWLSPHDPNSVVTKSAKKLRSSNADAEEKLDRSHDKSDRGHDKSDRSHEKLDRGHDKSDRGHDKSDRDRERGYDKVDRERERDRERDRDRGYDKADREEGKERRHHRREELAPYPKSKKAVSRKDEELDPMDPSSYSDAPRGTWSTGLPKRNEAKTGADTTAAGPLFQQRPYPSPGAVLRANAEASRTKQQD

B1: NpwBP: nuclear protein (SEQ ID NO: 2) that binds to Npw38 (protein, listed as Homo sapiens)
chain: MGRRSTSSTKSGKFMNPTDQARKEARKRELKKNKKQRMMVRAAVLKMKDPKQIIRDMEKLDEMEFNPVQQPQLNEKVLKDKRKKLRETFERILRLYEKENPDIYKELRKLEVEYEQKRAQLSQYFDAVKNAQHVEVESIPLPDMPHAPSNILIQDIPLPGAQPPSILKKTSAYGPPTRAVSILPLLGHGVPRLPPGRKPPGPPPGPPPPQVVQMYGRKVGFALDLPPRRRDEDMLYSPELAQRGHDDDVSSTSEDDGYPEDMDQDKHDDSTDDSDTDKSDGESDGDEFVHRDNGERDNNEEKKSGLSVRFADMPGKSRKKKKNMKELTPLQAMMLRMAGQEIPEEGREVEEFSEDDDEDDSDDSEAEKQSQKQHKEESHSDGTSTASSQQQAPPQSVPPSQIQAPPMPGPPPLGPPPAPPLRPPGPPTGLPPGPPPGAPPFLRPPGMPGLRGPLPRLLPPGPPPGRPPGPPPGPPPGLPPGPPPRGPPPRLPPPAPPGIPPPRPGMMRPPLVPPLGPAPPGLFPPAPLPNPGVLSAPPNLIQRPKADDTSAATIEKKATATISAKPQITNPKAEITRFVPTALRVRRENKGATAAPQRKSEDDSAVPLAKAAPKSGPSVPVSVQTKDDVYEAFMKEMEGLL
B2: Npw38(W52A): a WW domain variant of Npw38 (protein)
chain: T1 sequence (O60828 1-265) with W52A

Legend:
[1] = target: T1, binding of Npw38 to NpwBP(P2)-GFP; assay: Detection of binding-inhibitory action on intranuclear localization of NpwBP(P2)-GFP; type: cell-based; details: COS7 cells, NpwBP of more than NpwBP(P2)-GFP co-expressed along with Npw38 and NpwBP(P2)-GFP
Procedure: (§1) Monkey kidney-derived, cultured cell COS7 was incubated in a 10% fetal calf serum-containing Dulbecco's modified Eagle's medium (DMEM) in the presence of 5% CO2 at 37° C. COS7 cells of 1=10^5 were placed in a 6-well plate (from Nunk, having a well diameter of 3 cm), and further incubated therein in the presence of 5% CO2 at 37° C. for 22 hours. After the medium was removed, the cell sur were washed with a phosphate buffer solution (PBS), and then further washed with a 50 mM Tris-HCl (pH 7.5)-containing DMEM. To these cells, added was a suspension comprising 1 μl of a plasmid suspension, 0.6 ml of DMEM and 3 μl of TRANSFECTAM™ (from IBF), and incubated in the presence of 5% CO2 at 37° C. for 12 hours. Then, the cells were washed with PBS, and fixed with 4% peraformaldehyde-containing PBS at room temperature for 10 minutes. The thus-fixed cells were washed with PBS, then treated with 0.2% Triton X-100, and thereafter blocked with 5% milk PBS. This was reacted with an anti-HA antibody for 45 minutes, then washed with PBS, and reacted with a rhodamine-binding secondary antibody for 45 minutes.
In the system of the above (2), NpwBP of more than NpwBP(P2)-GFP was co-expressed in the cells along with Npw38 and NpwBP(P2)-GFP. In this case, the intranuclear localization of NpwBP(P2)-GFP was inhibited. […]

Npw38 = target: T2, Npw38; assay: Npw38-NpwBP binding detection by intracellular localization of GFP fluorescence in COS7 cells; type: cell-based; details: expressed in place of HA-Npw38 together with NpwBP-GFP
Procedure: as §1, with “45 minutes. […]” for “45 minutes.”
First, pKA1-NpwBP(P1)-GFP or pKA1-NpwBP(P2)-GFP was singly introduced into COS7 cells, and the localization of these fusion proteins in the cells was checked through fluorescence microscopy based on the green fluorescence of GFP as the index thereof. […]

Molecule | intranuclear localization of NpwBP(P2)-GFP [1] | intranuclear localization of the green fluorescence of NpwBP-GFP (Npw38)
B1 | inhibited | –
B2 | – | no intranuclear localization
